Legend:
Test in all cases: holdup assay
Design in all cases: key: below the threshold = too weak to quantify, mostly under pKd 3.1 to 4
[1] = molecular target: T1, GRIP1_4, Q9Y3R0
T1 sequence (Q9Y3R0 467-571, limits assumed, looked up): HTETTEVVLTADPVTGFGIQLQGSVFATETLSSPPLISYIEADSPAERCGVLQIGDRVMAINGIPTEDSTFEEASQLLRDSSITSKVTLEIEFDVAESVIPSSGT

[2] = molecular target: NOS1, P29475
[3] = molecular target: T2, GRIP1_2, Q9Y3R0
T2 sequence (Q9Y3R0 145-248, limits assumed, looked up): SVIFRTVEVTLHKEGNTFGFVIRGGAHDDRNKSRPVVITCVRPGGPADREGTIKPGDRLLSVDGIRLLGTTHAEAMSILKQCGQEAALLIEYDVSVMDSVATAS

[4] = molecular target: TJP1_3, Q07157
[5] = molecular target: TJP2_1, Q9UDY2
[6] = molecular target: LAP2, Q96RT1
[7] = molecular target: T3, RHPN1, Q8TCX5
T3 sequence (Q8TCX5 508-602, limits assumed, looked up): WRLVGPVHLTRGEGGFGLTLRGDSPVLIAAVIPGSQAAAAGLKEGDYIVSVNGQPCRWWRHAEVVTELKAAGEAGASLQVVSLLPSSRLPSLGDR

[8] = molecular target: T4, SYNJ2BP, P57105
T4 sequence (P57105 8-110, limits assumed, looked up): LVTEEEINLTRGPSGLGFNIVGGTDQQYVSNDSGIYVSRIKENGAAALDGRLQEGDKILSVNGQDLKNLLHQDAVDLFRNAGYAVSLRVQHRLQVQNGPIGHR

[9] = molecular target: T5, PTPN13_1, Q12923
T5 sequence (Q12923 1088-1188, limits assumed, looked up): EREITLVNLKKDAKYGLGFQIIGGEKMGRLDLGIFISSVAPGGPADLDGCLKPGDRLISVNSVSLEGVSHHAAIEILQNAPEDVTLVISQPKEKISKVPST

[10] = molecular target: T6, HTRA3, P83110
T6 sequence (P83110 354-453, limits assumed, looked up): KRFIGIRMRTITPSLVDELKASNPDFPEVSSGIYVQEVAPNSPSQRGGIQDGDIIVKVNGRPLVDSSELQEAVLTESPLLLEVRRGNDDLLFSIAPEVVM

[11] = molecular target: HTRA1, Q92743
[12] = molecular target: T7, MPDZ_10, O75970
T7 sequence (O75970 1624-1722, limits assumed, looked up): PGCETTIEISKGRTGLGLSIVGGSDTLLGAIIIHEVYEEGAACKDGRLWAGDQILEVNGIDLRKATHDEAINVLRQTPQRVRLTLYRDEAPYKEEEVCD

[13] = molecular target: T8, LIN7B, Q9HAP6
T8 sequence (Q9HAP6 88-185, limits assumed, looked up): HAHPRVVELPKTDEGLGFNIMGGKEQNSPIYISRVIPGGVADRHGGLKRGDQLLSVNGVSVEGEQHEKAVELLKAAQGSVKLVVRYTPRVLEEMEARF

[14] = molecular target: T9, DLG3_1, Q92796
T9 sequence (Q92796 125-227, limits assumed, looked up): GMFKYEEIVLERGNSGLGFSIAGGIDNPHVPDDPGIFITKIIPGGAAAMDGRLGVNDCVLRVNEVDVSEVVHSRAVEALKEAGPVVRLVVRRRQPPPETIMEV

[15] = molecular target: Inadl_5, Q8NI35
[16] = molecular target: T10, DLG3_2, Q92796
T10 sequence (Q92796 221-321, limits assumed, looked up): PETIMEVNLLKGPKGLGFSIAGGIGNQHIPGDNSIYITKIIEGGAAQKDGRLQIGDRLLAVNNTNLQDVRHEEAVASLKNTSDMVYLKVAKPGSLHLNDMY

[17] = molecular target: T11, PARD3B_1, Q8TEW8
T11 sequence (Q8TEW8 196-299, limits assumed, looked up): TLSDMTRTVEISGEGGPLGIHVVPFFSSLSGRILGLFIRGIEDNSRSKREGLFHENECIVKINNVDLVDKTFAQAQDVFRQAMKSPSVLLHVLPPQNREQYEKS

[18] = molecular target: DLG4_1, P78352
[19] = molecular target: IL16_1, Q14005
[20] = molecular target: DLG1_3, Q12959
[21] = molecular target: T12, DFNB31_1, Q9P202
T12 sequence (Q9P202 135-233, limits assumed, looked up): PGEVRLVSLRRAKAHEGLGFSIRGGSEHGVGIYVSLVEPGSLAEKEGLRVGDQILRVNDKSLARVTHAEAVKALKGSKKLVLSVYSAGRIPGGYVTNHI

[22] = molecular target: NHERF4_4, Q86UT5
[23] = molecular target: Inadl_9, Q8NI35; conditions: plain residues with an end cap or a label only (N-terminal biotin on a linker: (peg)3)
[24] = molecular target: GORASP2, Q9H8Y8
[25] = molecular target: Inadl_10, Q8NI35
[26] = plain residues with an end cap or a label only (N-terminal biotin on a linker: (peg)3)
[27] = plain residues with an end cap or a label only (N-terminal biotin on a linker: ado-ado)

Chain of LAP2, Q96RT1 (Q96RT1 other isoform, or with tags, fused parts or gaps): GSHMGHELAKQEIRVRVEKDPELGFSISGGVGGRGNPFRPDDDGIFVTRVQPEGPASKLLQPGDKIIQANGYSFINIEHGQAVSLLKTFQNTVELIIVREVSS
Chain of NOS1, P29475 (P29475 9-101): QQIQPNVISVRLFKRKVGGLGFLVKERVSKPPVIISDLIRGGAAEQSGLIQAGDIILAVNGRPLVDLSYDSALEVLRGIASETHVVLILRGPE
Chain of TJP2_1, Q9UDY2 (Q9UDY2 24-128): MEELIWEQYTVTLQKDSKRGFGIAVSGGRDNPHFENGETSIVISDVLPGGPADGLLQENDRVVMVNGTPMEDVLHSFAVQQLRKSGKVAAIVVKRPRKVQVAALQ
Chain of Inadl_10, Q8NI35 (Q8NI35 1673-1763): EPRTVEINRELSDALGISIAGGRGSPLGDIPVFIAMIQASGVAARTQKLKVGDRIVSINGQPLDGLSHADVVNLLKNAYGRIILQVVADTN
Chain of Inadl_5, Q8NI35 (Q8NI35 673-780): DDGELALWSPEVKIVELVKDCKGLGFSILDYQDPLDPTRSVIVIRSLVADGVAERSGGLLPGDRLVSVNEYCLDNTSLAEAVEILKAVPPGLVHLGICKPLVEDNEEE
Chain of HTRA1, Q92743 (Q92743 360-477): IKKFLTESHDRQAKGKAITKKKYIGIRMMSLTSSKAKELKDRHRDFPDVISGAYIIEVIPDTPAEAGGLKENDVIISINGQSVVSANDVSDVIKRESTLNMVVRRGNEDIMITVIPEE
Chain of IL16_1, Q14005 (Q14005 210-306): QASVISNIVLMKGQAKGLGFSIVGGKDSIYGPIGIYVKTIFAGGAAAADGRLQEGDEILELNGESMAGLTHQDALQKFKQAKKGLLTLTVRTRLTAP
Chain of NHERF4_4, Q86UT5 (Q86UT5 464-550): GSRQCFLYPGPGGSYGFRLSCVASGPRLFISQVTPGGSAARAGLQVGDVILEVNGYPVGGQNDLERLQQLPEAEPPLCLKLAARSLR
Chain of TJP1_3, Q07157 (Q07157 416-512): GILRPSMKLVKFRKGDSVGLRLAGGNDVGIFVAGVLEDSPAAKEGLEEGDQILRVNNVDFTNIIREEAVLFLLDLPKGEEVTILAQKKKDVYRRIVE
Chain of DLG1_3, Q12959 (Q12959 457-571): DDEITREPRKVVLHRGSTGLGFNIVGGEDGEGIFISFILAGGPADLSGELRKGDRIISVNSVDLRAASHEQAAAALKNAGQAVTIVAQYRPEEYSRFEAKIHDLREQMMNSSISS
Chain of DLG4_1, P78352 (P78352 62-152): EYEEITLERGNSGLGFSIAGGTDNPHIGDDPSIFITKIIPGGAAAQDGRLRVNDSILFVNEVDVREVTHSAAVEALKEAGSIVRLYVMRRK
Chain of Inadl_9, Q8NI35 (Q8NI35 1530-1615): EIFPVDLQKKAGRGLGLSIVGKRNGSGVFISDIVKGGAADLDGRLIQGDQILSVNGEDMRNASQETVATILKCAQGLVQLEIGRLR

**Q.** NLNSSEGVPDLLV [SARS-CoV-E, P59637] was tested. Which pKd [1, 26] did it give?
**A.** The pKd was “below the threshold”.

**Q.** What about the pKd [2, 26] of the same binder?
**A.** The pKd was “below the threshold”.

**Q.** And the pKd [3, 26]?
**A.** The pKd was “below the threshold”.

**Q.** And the pKd [4, 26]?
**A.** Its pKd is “below the threshold”.

**Q.** And the pKd [5, 26]?
**A.** Its pKd is “below the threshold”.

**Q.** What about the pKd [6, 26] of the same binder?
**A.** Its pKd is “below the threshold”.

**Q.** And the pKd [7, 26]?
**A.** The pKd was “below the threshold”.

**Q.** And the pKd [8, 26]?
**A.** Its pKd is 3.99.

**Q.** And the pKd [9, 26]?
**A.** The pKd was “below the threshold”.

**Q.** What about the pKd [10, 26] of the same binder?
**A.** Its pKd is “below the threshold”.

**Q.** And the pKd [11, 26]?
**A.** Its pKd is 4.57.

**Q.** And the pKd [12, 26]?
**A.** Its pKd is “below the threshold”.

**Q.** And the pKd [13, 26]?
**A.** The pKd was “below the threshold”.

**Q.** What about the pKd [14, 26] of the same binder?
**A.** The pKd was “below the threshold”.

**Q.** What about the pKd [15, 26] of the same binder?
**A.** The pKd was “below the threshold”.

**Q.** And the pKd [16, 26]?
**A.** The pKd was “below the threshold”.

**Q.** And the pKd [17, 26]?
**A.** The pKd was “below the threshold”.

**Q.** And the pKd [18, 26]?
**A.** Its pKd is “below the threshold”.

**Q.** What about the pKd [19, 26] of the same binder?
**A.** Its pKd is “below the threshold”.

**Q.** What about the pKd [20, 26] of the same binder?
**A.** Its pKd is “below the threshold”.

**Q.** And the pKd [21, 26]?
**A.** Its pKd is “below the threshold”.

**Q.** And the pKd [22, 26]?
**A.** The pKd was “below the threshold”.

**Q.** And the pKd [23]?
**A.** The pKd was “below the threshold”.

**Q.** What about the pKd [24, 26] of the same binder?
**A.** The pKd was “below the threshold”.

**Q.** And the pKd [25, 26]?
**A.** The pKd was “below the threshold”.

**Q.** KSGKQTMLVV [TRIM29, Q14134;Q14134-2] was tested. Which pKd [1, 27] did it give?
**A.** Its pKd is “below the threshold”.

**Q.** And the pKd [2, 27]?
**A.** The pKd was “below the threshold”.

**Q.** And the pKd [3, 27]?
**A.** Its pKd is “below the threshold”.

**Q.** What about the pKd [5, 27] of the same binder?
**A.** Its pKd is “below the threshold”.

**Q.** And the pKd [6, 27]?
**A.** The pKd was “below the threshold”.

**Q.** And the pKd [7, 27]?
**A.** Its pKd is “below the threshold”.

**Q.** What about the pKd [8, 27] of the same binder?
**A.** Its pKd is “below the threshold”.

**Q.** And the pKd [9, 27]?
**A.** Its pKd is “below the threshold”.

**Q.** What about the pKd [10, 27] of the same binder?
**A.** The pKd was “below the threshold”.

**Q.** What about the pKd [11, 27] of the same binder?
**A.** Its pKd is 4.42.

**Q.** What about the pKd [13, 27] of the same binder?
**A.** The pKd was “below the threshold”.

**Q.** What about the pKd [15, 27] of the same binder?
**A.** Its pKd is “below the threshold”.

**Q.** And the pKd [16, 27]?
**A.** Its pKd is “below the threshold”.

**Q.** What about the pKd [17, 27] of the same binder?
**A.** Its pKd is “below the threshold”.

**Q.** And the pKd [19, 27]?
**A.** The pKd was “below the threshold”.

**Q.** What about the pKd [21, 27] of the same binder?
**A.** Its pKd is “below the threshold”.

**Q.** What about the pKd [24, 27] of the same binder?
**A.** The pKd was 4.6.

**Q.** What about the pKd [25, 27] of the same binder?
**A.** The pKd was “below the threshold”.

**Q.** How did the pKd [1, 27] turn out when VYPNAKVELV [PDLIM4_iso2, P50479;P50479-1] was run?
**A.** Its pKd is “below the threshold”.

**Q.** What about the pKd [2, 27] of the same binder?
**A.** The pKd was 4.05.

**Q.** And the pKd [3, 27]?
**A.** The pKd was “below the threshold”.

**Q.** And the pKd [4, 27]?
**A.** Its pKd is “below the threshold”.

**Q.** And the pKd [5, 27]?
**A.** The pKd was “below the threshold”.

**Q.** What about the pKd [6, 27] of the same binder?
**A.** Its pKd is “below the threshold”.

**Q.** What about the pKd [7, 27] of the same binder?
**A.** Its pKd is “below the threshold”.

**Q.** What about the pKd [8, 27] of the same binder?
**A.** The pKd was “below the threshold”.

**Q.** And the pKd [9, 27]?
**A.** Its pKd is “below the threshold”.

**Q.** And the pKd [11, 27]?
**A.** The pKd was 4.62.

**Q.** And the pKd [12, 27]?
**A.** The pKd was “below the threshold”.

**Q.** What about the pKd [13, 27] of the same binder?
**A.** Its pKd is “below the threshold”.

**Q.** What about the pKd [14, 27] of the same binder?
**A.** Its pKd is “below the threshold”.

**Q.** And the pKd [15, 27]?
**A.** Its pKd is “below the threshold”.

**Q.** And the pKd [16, 27]?
**A.** The pKd was “below the threshold”.

**Q.** And the pKd [18, 27]?
**A.** Its pKd is “below the threshold”.

**Q.** What about the pKd [19, 27] of the same binder?
**A.** The pKd was “below the threshold”.

**Q.** What about the pKd [20, 27] of the same binder?
**A.** The pKd was “below the threshold”.

**Q.** What about the pKd [21, 27] of the same binder?
**A.** Its pKd is “below the threshold”.

**Q.** And the pKd [22, 27]?
**A.** The pKd was “below the threshold”.

**Q.** What about the pKd [24, 27] of the same binder?
**A.** The pKd was 4.87.

**Q.** What about the pKd [25, 27] of the same binder?
**A.** Its pKd is “below the threshold”.
